The supplement of paper PMC9170038

Test system: K4 kissing-loop RNA reporter
Assay: apparent KD of K4 kissing-loop reporter; higher = weaker reporter binding
Settings: Eterna round: R107
Protocol: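 RNA-MaP round R107: designed RNA switches with theophylline, tryptophan, arginine or FMN aptamers are transcribed on-chip within common flanks. They are titrated with a labelled K4 kissing-loop RNA reporter in RNA-MaP buffer (100 mM Tris pH 7.5, 80 mM KCl, 4 mM MgCl2), without ligand or with the indicated ligand. Median apparent KD per design.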

[1] = input ligand: theophylline 20 uM
[2] = input ligand: tryptophan 2.4 mM
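Note: bound reporter read as fluorescence of individual clusters on recovered sequencing chips by microscopy, with normalized cluster intensities fitted with a binding model.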

For “GUAGUGAUGUUACGAAUAUUCCAUCAUAGAGAGGAUAUUGUUCCUUCGAGAAGGUUCUGAGAAUUAAAAUUUAAUAAAAUGAAGG [Exclusion FMN A GF 1]”, the “apparent KD of K4 kissing-loop reporter” value (input ligand: FMN 200 uM) was 246 nM, the “apparent KD of K4 kissing-loop reporter” value (input ligand: arginine 13.2 mM) was 302 nM and the “apparent KD of K4 kissing-loop reporter” value (input ligand: none) was 277 nM. For the same sequence, the “apparent KD of K4 kissing-loop reporter” value [1] was 357 nM and the “apparent KD of K4 kissing-loop reporter” value [2] was 160 nM.

“GUAGUGAUGUUACGAGUAUUCCAUCGUAGAGAGGAUAUGGUUCCUUCCAGAAGGUUCUGAGAAUUAAAAUUUGAUAAAAUGAGGG [Exclusion FMN A GF 2]” was tested, and the “apparent KD of K4 kissing-loop reporter” value (input ligand: FMN 200 uM) was 304 nM, the “apparent KD of K4 kissing-loop reporter” value (input ligand: arginine 13.2 mM) was 251 nM and the “apparent KD of K4 kissing-loop reporter” value (input ligand: none) was 390 nM. For the same sequence, the “apparent KD of K4 kissing-loop reporter” value [1] was 392 nM and the “apparent KD of K4 kissing-loop reporter” value [2] was 252 nM.

“GUAUCGCUAGGAGGAUAUUCCAAUCCGCCUAUAAUAGGUGGUACGGAGUGAUGUUCCGAUUUACGGGAAGAAGGCCUAGUGAUAC [FMN B 17]” was tested, and the “apparent KD of K4 kissing-loop reporter” value (input ligand: FMN 200 uM) was 155 nM, the “apparent KD of K4 kissing-loop reporter” value (input ligand: arginine 13.2 mM) was 318 nM and the “apparent KD of K4 kissing-loop reporter” value (input ligand: none) was 302 nM. For the same sequence, the “apparent KD of K4 kissing-loop reporter” value [1] was 381 nM and the “apparent KD of K4 kissing-loop reporter” value [2] was 346 nM.

In the case of “GUAUCGCUAGGAGGAUAUUCCAUUUUACAUAUAAAUGGAUAUGCGGAGUGAUGUUCCGAUUUACGGGAAGAAGGCCUAGUGAUAC [FMN B 20]”, the “apparent KD of K4 kissing-loop reporter” value (input ligand: FMN 200 uM) is reported as 138 nM, the “apparent KD of K4 kissing-loop reporter” value (input ligand: arginine 13.2 mM) is reported as 220 nM and the “apparent KD of K4 kissing-loop reporter” value (input ligand: none) is reported as 219 nM. For the same sequence, the “apparent KD of K4 kissing-loop reporter” value [1] was 256 nM and the “apparent KD of K4 kissing-loop reporter” value [2] was 208 nM.

“GUAUCGCUAGGAGGAUAUUUCAAAUAACAAAUAAAUGGUUAUACGGAGUGAUGUUCCGAUUUACGGAAAGAAGGCCUAGUGAUAC [FMN B 4]” was tested, and the “apparent KD of K4 kissing-loop reporter” value (input ligand: FMN 200 uM) was 112 nM, the “apparent KD of K4 kissing-loop reporter” value (input ligand: arginine 13.2 mM) was 203 nM and the “apparent KD of K4 kissing-loop reporter” value (input ligand: none) was 210 nM. For the same sequence, the “apparent KD of K4 kissing-loop reporter” value [1] was 218 nM and the “apparent KD of K4 kissing-loop reporter” value [2] was 203 nM.

“GUAUGUGGAAACACGUACUUAUAUCCUAGGCAGGAUAUGCGGAAACGCAGAAGGGCCACCGGCGAGAAAAUCCAGUGAUGUUGGA [Ex FMN A 7]” was tested, and the “apparent KD of K4 kissing-loop reporter” value (input ligand: FMN 200 uM) was 260 nM, the “apparent KD of K4 kissing-loop reporter” value (input ligand: arginine 13.2 mM) was 248 nM and the “apparent KD of K4 kissing-loop reporter” value (input ligand: none) was 244 nM. For the same sequence, the “apparent KD of K4 kissing-loop reporter” value [1] was 238 nM and the “apparent KD of K4 kissing-loop reporter” value [2] was 249 nM.

For “GUAUGUGGAAACACGUACUUGUAUCCUAAGCAGGAUAUGCGGAAACGCAGAAGGGCUACCAACGAGUUUAUCCAGUGAUGUUGGA [Ex FMN A 13]”, the “apparent KD of K4 kissing-loop reporter” value (input ligand: FMN 200 uM) was 507 nM, the “apparent KD of K4 kissing-loop reporter” value (input ligand: arginine 13.2 mM) was 298 nM and the “apparent KD of K4 kissing-loop reporter” value (input ligand: none) was 332 nM. For the same sequence, the “apparent KD of K4 kissing-loop reporter” value [1] was 393 nM and the “apparent KD of K4 kissing-loop reporter” value [2] was 455 nM.

“GUAUUGUGCCUGGAUACCAGACACCCGAGUGAUGUUCGGAGCAGAGUGAUGUUCUAAUAAGUCCCUUGGCAGCCGGUCGCAGUCG [Same State Theophylline B gf 4]” was tested, and the “apparent KD of K4 kissing-loop reporter” value (input ligand: FMN 200 uM) was 810 nM, the “apparent KD of K4 kissing-loop reporter” value (input ligand: arginine 13.2 mM) was 869 nM and the “apparent KD of K4 kissing-loop reporter” value (input ligand: none) was 914 nM. For the same sequence, the “apparent KD of K4 kissing-loop reporter” value [1] was 535 nM and the “apparent KD of K4 kissing-loop reporter” value [2] was 886 nM.

With “GUCAACCCAGCUGAUACCAGCCGGUUACGCACAUGCACACCCAGUGAUGUUGGGUAUUAGGGCCCUUGGCAGCAGCCUCUUGGCU [theeternabot_sameState_KL_Theo_B_30]” the “apparent KD of K4 kissing-loop reporter” value (input ligand: FMN 200 uM) was 165 nM, the “apparent KD of K4 kissing-loop reporter” value (input ligand: arginine 13.2 mM) was 162 nM and the “apparent KD of K4 kissing-loop reporter” value (input ligand: none) was 169 nM. The “apparent KD of K4 kissing-loop reporter” value [1] was 182 nM and the “apparent KD of K4 kissing-loop reporter” value [2] was 149 nM.

With “GUCCACACUGCAGGAUAUGGAGAAGUAGCGAGGGAGUUUGGAAGCACACCUCUGGCAGUGAUGUUGCCAGAAGGGCGGUGCGGCG [Inlaindi]” the “apparent KD of K4 kissing-loop reporter” value (input ligand: FMN 200 uM) was 109 nM, the “apparent KD of K4 kissing-loop reporter” value (input ligand: arginine 13.2 mM) was 80.2 nM and the “apparent KD of K4 kissing-loop reporter” value (input ligand: none) was 80.6 nM. The “apparent KD of K4 kissing-loop reporter” value [1] was 84.1 nM and the “apparent KD of K4 kissing-loop reporter” value [2] was 93.9 nM.

In the case of “GUCCCAGUGAUGUUGGUAGGCGAGCGGGAUACCAGCCAAGACUCAGGCCCUUGGCAGCCCACAUAUCCCACGUAGGGAGUAGCUC [Same State - Theophylline A (Freestyle 18)]”, the “apparent KD of K4 kissing-loop reporter” value (input ligand: FMN 200 uM) is reported as 269 nM, the “apparent KD of K4 kissing-loop reporter” value (input ligand: arginine 13.2 mM) is reported as 172 nM and the “apparent KD of K4 kissing-loop reporter” value (input ligand: none) is reported as 210 nM. The “apparent KD of K4 kissing-loop reporter” value [1] was 274 nM and the “apparent KD of K4 kissing-loop reporter” value [2] was 209 nM.

In the case of “GUCCUGAGUGAUGUUCGGGUCGUUCGGGAAGGAGCGCCCGCAAGGGCAGGUAGGUCGCCCGGAUCUCUCAGGUAACUGAGAGACC [#2 Same State - Arginine A Attempt #29 (HarryS)]”, the “apparent KD of K4 kissing-loop reporter” value (input ligand: FMN 200 uM) is reported as 563 nM, the “apparent KD of K4 kissing-loop reporter” value (input ligand: arginine 13.2 mM) is reported as 303 nM and the “apparent KD of K4 kissing-loop reporter” value (input ligand: none) is reported as 448 nM. For the same sequence, the “apparent KD of K4 kissing-loop reporter” value [1] was 554 nM and the “apparent KD of K4 kissing-loop reporter” value [2] was 383 nM.

With “GUCGAUGGUAACCGCUGACGUCGAUGAUGGGAGGAUAUGUUAGUUGACAGAAGGCCCAGUGAUGUUGGGCGUUUGUCUUGGUAUA [Ustecexe]” the “apparent KD of K4 kissing-loop reporter” value (input ligand: FMN 200 uM) was 517 nM, the “apparent KD of K4 kissing-loop reporter” value (input ligand: arginine 13.2 mM) was 143 nM and the “apparent KD of K4 kissing-loop reporter” value (input ligand: none) was 145 nM. For the same sequence, the “apparent KD of K4 kissing-loop reporter” value [1] was 134 nM and the “apparent KD of K4 kissing-loop reporter” value [2] was 136 nM.

In the case of “GUCUCAAAAGAGGCAAGCACUCACGAGGACAAGGAUAUCAUUUCAAUGAGAAGGUGUCCUCGUCCUCAGUGAUGUUGAGGAGUGC [Omei KL FMN A SS E 1]”, the “apparent KD of K4 kissing-loop reporter” value (input ligand: FMN 200 uM) is reported as 423 nM, the “apparent KD of K4 kissing-loop reporter” value (input ligand: arginine 13.2 mM) is reported as 159 nM and the “apparent KD of K4 kissing-loop reporter” value (input ligand: none) is reported as 259 nM. For the same sequence, the “apparent KD of K4 kissing-loop reporter” value [1] was 299 nM and the “apparent KD of K4 kissing-loop reporter” value [2] was 233 nM.

In the case of “GUGAAGGAGCUGCAGUGAUGUUGCAGAGACUAGGAUAUCAGGAAACUGAGAAGGAGUCAACUCCUUCACCUAGACUGCAACAUAA [[F]''-[K1]-[K2]-[F1]-[F2]-[F2]'-[F1]'-[K]'_Design3]”, the “apparent KD of K4 kissing-loop reporter” value (input ligand: FMN 200 uM) is reported as 99.6 nM, the “apparent KD of K4 kissing-loop reporter” value (input ligand: arginine 13.2 mM) is reported as 69.7 nM and the “apparent KD of K4 kissing-loop reporter” value (input ligand: none) is reported as 67.7 nM. The “apparent KD of K4 kissing-loop reporter” value [1] was 75.7 nM and the “apparent KD of K4 kissing-loop reporter” value [2] was 134 nM.

In the case of “GUGCAAAGCACCGGCACGAGCAGCCUAAAGGAGGAUAUGACGAAAGUCAGAAGGCCUAGUGAUGUUAGGUCUUGCUUGAGUCGAA [Omei KL FMN A Exc B v2]”, the “apparent KD of K4 kissing-loop reporter” value (input ligand: FMN 200 uM) is reported as 156 nM, the “apparent KD of K4 kissing-loop reporter” value (input ligand: arginine 13.2 mM) is reported as 214 nM and the “apparent KD of K4 kissing-loop reporter” value (input ligand: none) is reported as 301 nM. The “apparent KD of K4 kissing-loop reporter” value [1] was 323 nM and the “apparent KD of K4 kissing-loop reporter” value [2] was 320 nM.

“GUGCAGUGAUGUUGCACGAGGAAAGACGAUACCAGCCGUAAAUAAGGCCCUUGGCAGCGUAGGCCAGCAUAAAGUAUGCUAGUCU [Oresbelaen]” was tested, and the “apparent KD of K4 kissing-loop reporter” value (input ligand: FMN 200 uM) was 120 nM, the “apparent KD of K4 kissing-loop reporter” value (input ligand: arginine 13.2 mM) was 107 nM and the “apparent KD of K4 kissing-loop reporter” value (input ligand: none) was 111 nM. The “apparent KD of K4 kissing-loop reporter” value [1] was 89.2 nM and the “apparent KD of K4 kissing-loop reporter” value [2] was 99 nM.

For “GUGCGGCUAGUGAUGUUGGUUGCGUGGGAAGGAGCGCAGAAACAUGCAGGUAGGUCGCCCACAUCUCGGAUAAGAGACUAAUUCA [Letiisve]”, the “apparent KD of K4 kissing-loop reporter” value (input ligand: FMN 200 uM) was 606 nM, the “apparent KD of K4 kissing-loop reporter” value (input ligand: arginine 13.2 mM) was 182 nM and the “apparent KD of K4 kissing-loop reporter” value (input ligand: none) was 168 nM. For the same sequence, the “apparent KD of K4 kissing-loop reporter” value [1] was 220 nM and the “apparent KD of K4 kissing-loop reporter” value [2] was 307 nM.

In the case of “GUGCGGCUAGUGAUGUUGGUUGCGUGGGAAGGAGCGCAGAAACAUGCAGGUAGGUCGCCCACAUCUCGGAUAAGAGAUUAAUUCC [Arorso]”, the “apparent KD of K4 kissing-loop reporter” value (input ligand: FMN 200 uM) is reported as 291 nM, the “apparent KD of K4 kissing-loop reporter” value (input ligand: arginine 13.2 mM) is reported as 153 nM and the “apparent KD of K4 kissing-loop reporter” value (input ligand: none) is reported as 252 nM. For the same sequence, the “apparent KD of K4 kissing-loop reporter” value [1] was 262 nM and the “apparent KD of K4 kissing-loop reporter” value [2] was 244 nM.

For “GUGGAAAUCAGAAGGAGCGUCUACAAUAAGAAAACCAGUGAUGUUGGUUUUAUUUAAUGAAGACAGGUAGGUCGCUGAAUUUCUA [Same State Arginie B GF 20]”, the “apparent KD of K4 kissing-loop reporter” value (input ligand: FMN 200 uM) was 138 nM, the “apparent KD of K4 kissing-loop reporter” value (input ligand: arginine 13.2 mM) was 106 nM and the “apparent KD of K4 kissing-loop reporter” value (input ligand: none) was 118 nM. The “apparent KD of K4 kissing-loop reporter” value [1] was 105 nM and the “apparent KD of K4 kissing-loop reporter” value [2] was 118 nM.

“GUGUCCUAGUCGGCCGCCACUGGUACGAAAAUAGAAGGACGUGUGCACAUGAGUGAUGUUCAUGUCAGGACCGGGACUAGGGUGU [KL-SSTryp-B6 Brourdwalk2]” was tested, and the “apparent KD of K4 kissing-loop reporter” value (input ligand: FMN 200 uM) was 281 nM, the “apparent KD of K4 kissing-loop reporter” value (input ligand: arginine 13.2 mM) was 304 nM and the “apparent KD of K4 kissing-loop reporter” value (input ligand: none) was 367 nM. For the same sequence, the “apparent KD of K4 kissing-loop reporter” value [1] was 332 nM and the “apparent KD of K4 kissing-loop reporter” value [2] was 316 nM.
